This is an account of results in patent US8147817B2, “IL-33 in the treatment and diagnosis of diseases and disorders” (The Brigham and Women's Hospital, Inc., priority 2006, dated 2012).

Test [1] concerns rat neonatal cardiomyocytes. In words: In vitro cell size measurement of cardiomyocytes. The class given is cell-based. To be noted: with or without angiotensin-II (0.1 μM), IL-33 (10 ng/ml), anti-ST2 antibody (100 μg/ml). The procedure: Sarcomeric α-actinin staining for cardiomyocytes and BrdUrd labeling for cardiac fibroblasts were performed as described previously (5). Mouse monoclonal antibody to sarcomeric α-actinin (EA-53, Sigma) was diluted 1:100 and used. For cardiomyocyte size, cells were visualized using an inverted fluorescent microscope (IX-70; Olympus), and the surface area of the cardiomyocytes was calculated with ImagePro Express software. Cells from randomly selected fields were analyzed.
Cell culture of rat neonatal cardiomyocytes and cardiac fibroblasts was performed as previously described (42, 43). Briefly, hearts from 1-3 day-old Sprague-Dawley rat neonates (Charles River) were digested with trypsin (1 mg/ml, GIBCO) and collagenase-II (0.8 mg/ml, Worthington), and plated on non-coated culture dishes for 1.5 hrs. Attached cells were further cultured with Dulbecco's Modified Essential Medium (GIBCO) containing 10% fetal bovine serum and used as cardiac fibroblasts after 2 passages. […]
Immunofluorescence staining on paraffin-embedded mice hearts or rat neonatal cardiomyocyte cell culture was performed as described previously (42, 45). […] For measuring cardiomyocyte size, the surface area of the cells was calculated with ImagePro Express software. Cells from randomly selected fields were analyzed.

Another test deals with IκBα. As to the kind of experiment: IκBα phosphorylation by Western analysis in cardiomyocytes. The class given is cell-based, rat. The procedure:
Western analyses were performed as described previously (45). Membranes were incubated with primary antibodies overnight (anti-p44/42MAPK diluted 1:500; phospho-p44/42MAPK (Thr202/Tyr204) 1:1000; phospho-JNK (Thr183/Tyr185) 1:500; p38MAPK 1:500; phospho-p38MAPK (Thr180/Tyr182) 1:500; phospho-Akt (Ser473) 1:1000 and phospho-IκBα 1:1000, all from Cell Signaling, anti-mouse ST2L, from R&D 1:1000 and anti-IL-33 as described above, 1:500) at 4° C., detected with horseradish peroxidase-conjugated antibodies and enhanced chemiluminescence.

In test [2] the test system is rat neonatal cardiomyocytes. In words: Cardiomyocyte apoptosis assays (H2O2 stimulus). The class given is cell-based. The procedure:
For cardiomyocyte apoptosis assays, cardiomyocytes were plated overnight, cultured serum-free for 24 hours, and then subjected to 0.1 mM H2O2 for another 24 hours with or without treatment with purified rat mature IL-33 protein. TUNEL staining (FIG. 19) was performed using a TUNEL staining kit (Roche Diagnostics Corp., Indianapolis, Ind.). For DNA fragmentation experiments (FIGS. 19 and 20), cells were trypsinized, fixed with ethanol, incubated in RNase, stained with propidium iodide, and then subjected to flow cytometry (Cytomics FC 500; Beckman Coulter).
Membranes (PVDF, PerkinElmer) were incubated with primary antibodies overnight (anti-cleaved caspase-3, 1:1000; from Cell Signaling Technology) at 4° C., detected with horseradish peroxidase-conjugated antibodies (Bio-Rad) and enhanced chemiluminescence (FIG. 20).

In another test the test system is cardiac fibroblasts. As to the kind of experiment: Cardiac fibroblast proliferation. The class given is cell-based, rat. On the procedure: A 3-(4,5-dimethylthiazol-2-yl)-5-(3-carboxymethoxyphenyl)-2-(4-sulfophenyl)-2H-tetrazolium salt (MTS) assay was performed with CellTiter 96 AQueous One Solution Cell Proliferation Assay kit (Promega, Madison, Wis.). Actual cell number in each group was also counted manually after exclusion of dead cells by Trypan blue staining. Cell cycle of cardiac fibroblasts was analyzed as previously described (9). Briefly, cardiac fibroblasts were seeded at a density of 1.5×10^5 cells per 60 mm dishes and serum-starved for 24 hrs. After treatment, cells were trypsinized, fixed in 80% ethanol at −20° C. and labeled with 50 ug/ml propidium iodide (Sigma) with 50 ug/ml RNaseA (Sigma). Then propidium iodide fluorescence was analyzed by flow cytometer (CYTOMICS FC500, Beckman Coulter, Fullerton, Calif.). Total population was initially gated to remove cell debris, and 1×10^4 cells were assessed for each DNA histogram using CXP software (Beckman Coulter).

Entries after “also recorded” stand apart in the source; their conditions may differ.

B1: IL-33: recombinant mature rat IL-33, starting with amino acid 109 of the full-length protein, N-terminal His tag (GenBank BC081993) (protein)
chain: SIQGTSLLTESCALSTYNDQSVSFVLENGCYVINVEDCGKNQEKDKVLLRYYESSFPAQSGDGVDGKKLMVNMSPIKDTDIWLNANDKDYSVELQKGDVSPPDQAFFVLHKKSSDFVSFECKNLPGTYIGVKDNQLALVEENDESCNNIMFKLSKM
modifications: left off: small tags and cut ends
B1: in test [1], the cardiomyocyte cell size result is “antihypertrophic effect of IL-33 was further confirmed”. Besides, in the test on IκBα (PDGF-BB (10 ng/ml) or TNF-α (10 ng/ml), IL-33 10 ng/ml), the “reduction of IκBα phosphorylation induced by PDGF-BB or TNF-α” value was “not observed; also recorded: did not block IκBα phosphorylation”. In addition, the “IκBα phosphorylation by agent alone” value in the test with IκBα (cardiomyocytes) was “induced IκBα phosphorylation in both cell types”. Further, the “IκB phosphorylation under hypertrophic stimulus” value in the test with IκBα (cardiomyocytes, co-treatment with IL-33) is on record as “reduced IκB phosphorylation in cardiomyocytes”. In test [2], the “apoptosis (TUNEL staining, flow cytometry and caspase-3 evaluation together)” value is listed as “can prevent apoptosis in cardiac myocytes”; the “apoptosis by TUNEL staining” value was “can prevent apoptosis in cardiac myocytes; also recorded: can reduce apoptosis in cardiac myocytes”; the “apoptosis by caspase-3 activation” value is given as “can prevent apoptosis in cardiac myocytes”; the “apoptosis by flow cytometry after propidium iodide staining” value is on record as “can prevent apoptosis in cardiac myocytes”. Besides, the “cardiac fibroblast proliferation, IL-33 alone” value with cardiac fibroblasts is listed as “can induce cardiac fibroblast proliferation”. Moreover, the “cardiac fibroblast proliferation induced by angiotensin II” value in the test with cardiac fibroblasts (co-treatment with IL-33) was “antagonizes cardiac fibroblast proliferation induced by angiotensin II; also recorded: antagonizes the proliferation induced by angiotensin II”.
